Tests used:
Peptide-13 = target: T1, Peptide-13 (not fully specified)
T1 chain: CRPPGFSPFRK

Peptide-3 = target: T2, Peptide-3
T2 chain: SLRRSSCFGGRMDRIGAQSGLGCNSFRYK

Peptide-5 = target: T3, Peptide-5 (not fully specified)
T3 chain: CDRVYIHPFHLK

Peptide-6a = target: T4, Peptide-6a
T4 chain: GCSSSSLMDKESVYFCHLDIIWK

Peptide-6b = target: T5, Peptide-6b
T5 chain: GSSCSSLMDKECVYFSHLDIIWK

Peptide-8 = target: T6, Peptide-8 (not fully specified)
T6 chain: CQLYENKPRRPYILK

B1: C19 (protein)
chain: YPYDVPDYAYPYDVPDYAYPYDVPDYAGSYDDGICKSSDCIKSAARLIQNMDATTEPCTDFFKYACGGWLKRNVIPETSSRYGNFDILRDELEVVLKDVLQEPKTEDIVAVQKAKALYRSCINESAIDSRGGEPLLKLLPDIYGWPVATENWEQKYGASWTAEKAIAQLNSKYGKKVLINLFVGTDDKNSVNHVIHIDQPRLGLPSGDYYECTGIYKEACTAYVDFMISVARLIRQEERLPIDENQLALEMNKVMELEKEIANATAKPEDRNDPMLLYNKMTLAQIQNNFSLEINGKPFSWLNFTNEIMSTVNISITNEEDVVVYAPEYLTKLKPILTKYSARDLQNLMSWRFIMDLVSSLSRTYKESRNAFRKALYVTTSETATWRRCANYVNGNMMNAVGRLYVEAAFAGESKHVVEDLIAQIREVFIQTLDDLTWMDAETKKRAEEKALAIKERIGYPDDIVSNDNKLNNEYLELNYKEDEYFENIIQNLKFSQSKQLKKLREKVDKDEWISGAAVVNAFYSSGRNQIVFPAGILQPPFFSAQQSNSLNYGGIGMVIGHEITHGFMDNGRNPNKDLDLVDWWTQQSASNFKEQSQCMVYQYGNFSWDLAGGQHLNGINTLGENIADNGGLGQAYRAYQNYIKKNGEEKLLPGLDLNHKQLFFLNFAQVWCGTYRPEYAVNSIKTDVHSPKNFRIIGTLQNSAEFSEAFHCRKNSYMNPEKKCRVW
kapp ratio vs G399V/G714K (B1) (Peptide-1): 2.33 fold | kapp ratio vs G399V/G714K (B1) (Peptide-13): 0.33 fold | kapp ratio vs G399V/G714K (B1) (Peptide-2): 2.34 fold | kapp ratio vs G399V/G714K (B1) (Peptide-3): 0.24 fold | kapp ratio vs G399V/G714K (B1) (Peptide-4): 0.67 fold | kapp ratio vs G399V/G714K (B1) (Peptide-5): 0.15 fold | kapp ratio vs G399V/G714K (B1) (Peptide-6a): 0.29 fold | kapp ratio vs G399V/G714K (B1) (Peptide-6b): 0.19 fold | kapp ratio vs G399V/G714K (B1) (Peptide-7): 0.34 fold | kapp ratio vs G399V/G714K (B1) (Peptide-8): 0.29 fold

From US20120237496
